# Substitutions are numbered along the chain they refer to.
# T1: PD-L2 fuse-expressed with an Fc derived from human IgG1 (human, UniProt Q9BQ51 20-219, limits assumed)
# T1 construct: Bought reagent; also called hPD-L2-Fc; not shown: Fc of human IgG1
# T1 sequence (looked up): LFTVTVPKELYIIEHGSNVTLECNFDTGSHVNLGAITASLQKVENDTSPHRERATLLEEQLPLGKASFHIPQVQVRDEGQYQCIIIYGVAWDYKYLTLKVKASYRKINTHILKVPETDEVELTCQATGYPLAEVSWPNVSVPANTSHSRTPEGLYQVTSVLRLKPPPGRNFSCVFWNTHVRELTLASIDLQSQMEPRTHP
# B1: Toripalimab (antibody, V domains shown)
# VH: QGQLVQSGAEVKKPGASVKVSCKASGYTFTDYEMHWVRQAPIHGLEWIGVIESETGGTAYNQKFKGRVTITADKSTSTAYMELSSLRSEDTAVYYCAREGITTVATTYYWYFDVWGQGTTVTVSS
# VL: DVVMTQSPLSLPVTLGQPASISCRSSQSIVHSNGNTYLEWYLQKPGQSPQLLIYKVSNRFSGVPDRFSGSGSGTDFTLKISRVEAEDVGVYYCFQGSHVPLTFGQGTKLEIKR
# B2: Seq No. 2-RFc (PD-1 variant PD1_56# fused to rabbit IgG Fc) (Fc fusion)
# chain: PGWFLDSPDRPWNPPTFSPALLVVTEGDNATFTCSFSNTSESFVLNWYRMSPSNQTDKLAAFPEDRSQPGQDCRFRVTQLPNGRDFHMSVVRARRNDSGTYLCGAISLSTPVWIKESLRAELRVTERRAEVPTAH
# notes: Signal peptide 1-20 left out; also called variant 1; Mut1/56#; not shown: rabbit IgG Fc (RFc) of vector pcDNA3.4-RFc
# B3: Seq No. 6-RFc (PD-1 variant PD1_56#-16 fused to rabbit IgG Fc) (Fc fusion)
# chain: B2 chain with R66F, S67F, Q68T, P69V, G70S
# notes: Signal peptide 1-20 left out; several higher bands in non-reducing SDS-PAGE; also called variant 5; PD1 variant 5 (56#-16); not shown: rabbit IgG Fc (RFc) of vector pcDNA3.4-RFc
# B4: Seq No. 4-RFc (PD-1 variant PD1_56#-3 fused to rabbit IgG Fc) (Fc fusion)
# chain: B2 chain with E64W, D65M, R66F, S67C, Q68F
# notes: Signal peptide 1-20 left out; several higher bands in non-reducing SDS-PAGE; also called variant 3; Mut3/56#-3; not shown: rabbit IgG Fc (RFc) of vector pcDNA3.4-RFc
# B5: Seq No. 3-RFc (PD-1 variant PD1_56#-2 fused to rabbit IgG Fc) (Fc fusion)
# chain: B2 chain with E64F, D65L, R66F, S67N, Q68L
# notes: Signal peptide 1-20 left out; several higher bands in non-reducing SDS-PAGE; also called variant 2; Mut2/56#-2; not shown: rabbit IgG Fc (RFc) of vector pcDNA3.4-RFc
# B6: Seq No. 5-RFc (PD-1 variant PD1_56#-15 fused to rabbit IgG Fc) (Fc fusion)
# chain: B2 chain with R66F, S67R, Q68N, P69C, G70T
# notes: Signal peptide 1-20 left out; also called variant 4; Mut4/56#-15; not shown: rabbit IgG Fc (RFc) of vector pcDNA3.4-RFc
# B7: Seq No. 7-RFc (PD-1 variant PD1_56#-108 fused to rabbit IgG Fc) (Fc fusion)
# chain: B2 chain with S67I, Q68N, P69R, G70S
# notes: Signal peptide 1-20 left out; also called variant 6; not shown: rabbit IgG Fc (RFc) of vector pcDNA3.4-RFc
# B8: PD-1 variant PD1_56#-16 on cells (receptor)
# chain: PGWFLDSPDRPWNPPTFSPALLVVTEGDNATFTCSFSNTSESFVLNWYRMSPSNQTDKLAAFPEDFFTVSQDCRFRVTQLPNGRDFHMSVVRARRNDSGTYLCGAISLSTPVWIKESLRAELRVTERRAEVPTAHPSPSPRPAGQFQTLVVGVVGGLLGSLVLLVWVLAVIRSKRSRLLHSDYMNMTPRRPGPTRKHYQPYAPPRDFAAYRS
# notes: On 293T cells and human T cells, from pLV2-PD1-CD28; signal peptide 1-20 left out; also called Mut5
# B9: PD-1 variant PD1_56#-108 on cells (receptor)
# chain: B8 chain with F66R, F67I, T68N, V69R
# notes: On 293T cells and human T cells, from pLV2-PD1-CD28; signal peptide 1-20 left out; also called Mut6
# Experiments:
# [1] = target: Seq No. 5-RFc (PD-1 variant PD1_56#-15 fused to rabbit IgG Fc) (human; rabbit) (UniProt Q15116); experiment: SPR Biacore T200
# [2] = target: Seq No. 1-RFc (wild-type PD-1 fused to rabbit IgG Fc) (human; rabbit) (UniProt Q15116); experiment: SPR Biacore T200
# [3] = target: Seq No. 3-RFc (PD-1 variant PD1_56#-2 fused to rabbit IgG Fc) (human; rabbit) (UniProt Q15116); experiment: SPR Biacore T200
# [4] = target: Seq No. 7-RFc (PD-1 variant PD1_56#-108 fused to rabbit IgG Fc) (human; rabbit) (UniProt Q15116); experiment: SPR Biacore T200
# [5] = target: Seq No. 6-RFc (PD-1 variant PD1_56#-16 fused to rabbit IgG Fc) (human; rabbit) (UniProt Q15116); experiment: SPR Biacore T200
# [6] = target: Seq No. 2-RFc (PD-1 variant PD1_56# fused to rabbit IgG Fc) (human; rabbit) (UniProt Q15116); experiment: SPR Biacore T200
# [7] = target: Seq No. 4-RFc (PD-1 variant PD1_56#-3 fused to rabbit IgG Fc) (human; rabbit) (UniProt Q15116); experiment: SPR Biacore T200
# [8] = target: Seq No. 5-RFc (PD-1 variant PD1_56#-15 fused to rabbit IgG Fc) (human; rabbit) (UniProt Q15116); experiment: SPR Biacore T200; antibody stationary phase
# [9] = target: Seq No. 1-RFc (wild-type PD-1 fused to rabbit IgG Fc) (human; rabbit) (UniProt Q15116); experiment: SPR Biacore T200; antibody stationary phase
# [10] = target: Seq No. 3-RFc (PD-1 variant PD1_56#-2 fused to rabbit IgG Fc) (human; rabbit) (UniProt Q15116); experiment: SPR Biacore T200; antibody stationary phase
# [11] = target: Seq No. 7-RFc (PD-1 variant PD1_56#-108 fused to rabbit IgG Fc) (human; rabbit) (UniProt Q15116); experiment: SPR Biacore T200; antibody stationary phase
# [12] = target: Seq No. 6-RFc (PD-1 variant PD1_56#-16 fused to rabbit IgG Fc) (human; rabbit) (UniProt Q15116); experiment: SPR Biacore T200; antibody stationary phase
# [13] = target: Seq No. 2-RFc (PD-1 variant PD1_56# fused to rabbit IgG Fc) (human; rabbit) (UniProt Q15116); experiment: SPR Biacore T200; antibody stationary phase
# [14] = target: Seq No. 4-RFc (PD-1 variant PD1_56#-3 fused to rabbit IgG Fc) (human; rabbit) (UniProt Q15116); experiment: SPR Biacore T200; antibody stationary phase
# [15] = target: wild-type human PD-1 (hPD-1) on cells (human); experiment: cell-based or functional assay
# [16] = target: B2; experiment: SPR Biacore T200
# [17] = target: T1, PD-L2 fuse-expressed with an Fc derived …; experiment: SPR Biacore T200
# [18] = target: T2, PD-L1 fuse-expressed with an Fc derived from human IgG1 (human, UniProt Q9NZQ7 19-239); experiment: SPR Biacore T200
# T2 construct: Bought reagent; also called PD-L1-Fc; hPD-L1-Fc; not shown: Fc of human IgG1
# [19] = target: T1, PD-L2 fuse-expressed with an Fc derived …; experiment: SPR Biacore T200; PD1-RFc mobile phase
# [20] = target: T2, PD-L1 fuse-expressed with an Fc derived …; experiment: SPR Biacore T200; PD1-RFc mobile phase
# [21] = target: T1, PD-L2 fuse-expressed with an Fc derived …; experiment: flow cytometry, human T cells
# [22] = target: T2, PD-L1 fuse-expressed with an Fc derived …; experiment: flow cytometry, human T cells
# T2 sequence (Q9NZQ7 19-239 limits assumed): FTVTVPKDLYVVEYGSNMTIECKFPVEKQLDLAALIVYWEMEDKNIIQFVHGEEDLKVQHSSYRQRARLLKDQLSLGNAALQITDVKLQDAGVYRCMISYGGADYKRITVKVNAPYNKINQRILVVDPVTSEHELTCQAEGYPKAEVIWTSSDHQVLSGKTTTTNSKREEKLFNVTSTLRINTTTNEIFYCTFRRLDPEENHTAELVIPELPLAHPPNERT
molecule,measurement,setting,value
Tilelizumab (antibody),Kd,[1],0.567 nM
same,Kd,[2],0.0135 nM
same,Kd,[3],1.78 nM
same,Kd,[4],0.0492 nM
same,Kd,[5],0.315 nM
same,Kd,[6],0.085 nM
same,Kd,[7],2.94 nM
same,koff,[8],0.0003 s⁻¹
same,kon,[8],530000 M⁻¹ s⁻¹
same,koff,[9],4.21e-05 s⁻¹
same,kon,[9],3.12e+06 M⁻¹ s⁻¹
same,koff,[10],0.00105 s⁻¹
same,kon,[10],588000 M⁻¹ s⁻¹
same,koff,[11],0.000109 s⁻¹
same,kon,[11],2.21e+06 M⁻¹ s⁻¹
same,koff,[12],0.000836 s⁻¹
same,kon,[12],2.66e+06 M⁻¹ s⁻¹
same,koff,[13],0.000174 s⁻¹
same,kon,[13],2.05e+06 M⁻¹ s⁻¹
same,koff,[14],0.00203 s⁻¹
same,kon,[14],691000 M⁻¹ s⁻¹
same,IL-2 concentration (pg/ml) at 0.8 nM,[15],432 pg/mL
same,IL-2 concentration (pg/ml) at 1.6 nM,[15],440 pg/mL
same,IL-2 concentration (pg/ml) at 3.2 nM,[15],440 pg/mL
same,IL-2 concentration (pg/ml) at 6.4 nM,[15],56.1 pg/mL
same,IL-2 concentration (pg/ml) at 12.8 nM,[15],36.9 pg/mL
same,IL-2 concentration (pg/ml) at 25.6 nM,[15],47.7 pg/mL
same,IL-2 concentration (pg/ml) at 51.2 nM,[15],80.5 pg/mL
same,IL-2 concentration (pg/ml) at 102.4 nM,[15],126 pg/mL
B1,Kd,[16],0.395 nM
B2,Kd,[17],1.17 nM
same,Kd,[18],0.457 nM
same,koff,[19],0.00657 s⁻¹
same,kon,[19],5.6e+06 M⁻¹ s⁻¹
same,koff,[20],0.00129 s⁻¹
same,kon,[20],2.82e+06 M⁻¹ s⁻¹
B3,Kd,[17],0.798 nM
same,Kd,[18],0.657 nM
same,koff,[19],0.00483 s⁻¹
same,kon,[19],6.05e+06 M⁻¹ s⁻¹
same,koff,[20],0.00153 s⁻¹
same,kon,[20],2.32e+06 M⁻¹ s⁻¹
B4,Kd,[17],296 nM
same,Kd,[18],39.6 nM
same,koff,[19],0.0019 s⁻¹
same,kon,[19],6420 M⁻¹ s⁻¹
same,koff,[20],0.00266 s⁻¹
same,kon,[20],67400 M⁻¹ s⁻¹
B5,Kd,[17],0.00296 nM
same,Kd,[18],4.12 nM
same,koff,[19],1.25e-05 s⁻¹
same,kon,[19],4.22e+06 M⁻¹ s⁻¹
B6,Kd,[17],4.53 nM
same,Kd,[18],2.25 nM
same,koff,[19],0.0096 s⁻¹
same,kon,[19],2.12e+06 M⁻¹ s⁻¹
same,koff,[20],0.00343 s⁻¹
same,kon,[20],1.52e+06 M⁻¹ s⁻¹
B7,Kd,[17],0.336 nM
same,Kd,[18],0.384 nM
same,koff,[19],0.00356 s⁻¹
same,kon,[19],1.06e+07 M⁻¹ s⁻¹
same,koff,[20],0.000771 s⁻¹
same,kon,[20],2.01e+06 M⁻¹ s⁻¹
B8,binding result,[21],binds
same,binding result,[22],binds
B9,binding result,[21],binds
same,binding result,[22],binds
